From US10538583 (dated 2020) come the findings set out here.

Assay [1] deals with human ApoC3 (human). The experiment in a line: SPR pH 5.5.
The target of assay [2] is human ApoC3 (human). The experiment in a line: SPR pH 7.4.
Assay [3] deals with human ApoC3 (human). The experiment in a line: SPR pH 5.5, antibody immobilized.
For assay [4], the target named is human ApoC3 (human). The experiment in a line: SPR pH 7.4, antibody immobilized.
The target in assay [5] is human ApoC3 (human). The experiment in a line: SPR pH 5.5. The source holds these as a separate data set.
The target of assay [6] is human ApoC3 (human). The experiment in a line: SPR pH 7.4. This is another data set of the same source.
The target of assay [7] is human ApoC3 (human). The assay can be described thus: SPR pH 5.5. This is another data set of the same source.
Assay [8] has as its target human ApoC3 (human). The assay can be described thus: SPR pH 5.5. This is another data set of the same source.
Assay [9] addresses human ApoC3 (human). The assay can be described thus: SPR pH 7.4. The source holds these as a separate data set.

Sequence of human ApoC3 (human) (chain, as listed by the source): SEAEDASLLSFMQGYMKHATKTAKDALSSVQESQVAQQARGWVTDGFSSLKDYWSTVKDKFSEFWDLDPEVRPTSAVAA

B1: mAb17 (antibody, V domains shown)
VH: QLVESGGGLVQPGGSLRLSCAASGFTFSTYSMRWVRQAPGKGLEWVSSIHTEAGGTAYRDSVKGRFTISRDNAKNTLYLQMNNLRAEDTAVYYCVIAGYSDWGQGTLVTVSS
VL: DIVMTQSPLSLPVTPGEPASISCKTSQGLVHSGGKTYFYWFLQKPGQSPQQLIYQVSNRASGVPDRFTGSGSGTDFTLKISRVEAEDAGVYYCAQGTYYPHTFGQGTRLEIK
With B1, the Kd (usually the equilibrium constant for the complex coming apart) in the assay with human ApoC3 [1] turned out to be 0.342 nM; with human ApoC3 [2] it was 0.0464 nM; with human ApoC3 [3] it was 257 nM; with human ApoC3 [4], 62.4 nM.

B2: mAb12 (antibody, V domains shown)
VH: QLVESGGGLVQPGGSLRLSCAASGFTFSTYSMRWVRQVPGKGLEWVSSIHTDAGGTAYRDSVKGRFTISRDNAKNTLYLQMNSLRPEDTAIYYCVIAGYSDWGQGTLVTVSS
VL: DIVMTQSPLSLSVTPGEPASISCKTSQGLVHSDGKTYFYWFLQKPGQSPQQLIYQVSNRASGVPDRFTGSGSGTDFTLKISRVKAEDVGVYYCAHGTYYPHTFGQGTRLEIK
For the molecule B2, the Kd with human ApoC3 [1] stood at 0.139 nM; with human ApoC3 [2], 0.0655 nM; with human ApoC3 [3] it was 343 nM; in the assay with human ApoC3 [4], 321 nM.

B3: mAb6 (antibody, V domains shown)
VH: QLVESGGGLVQPGGSLRLSCAASGFTFGTYSMRWVRQAPGKGLEWVSSIHTEGGGTAYRDSVKGRFTISRDNAKNTLYLQMNSLRAEDTAVYYCVIAGYSDWGQGTLVTVSS
VL: DIVMTQSPLSLPVTPGESASISCKTSQGLVHSDGKTYFYWFLQKPGQSPQQLIYQVSNRASGVPDRFSGSGSGTDFTLKISRVKAEDAGVYYCAHGTYYPHTFGQGTRLEIK
On to B3, for which the Kd in the assay with human ApoC3 [1] was found to be 0.347 nM; with human ApoC3 [2], 0.0599 nM; in the assay with human ApoC3 [3], 861 nM; in the assay with human ApoC3 [4], 165 nM.

B4: 5E5VH5VH12_VLWT IgG1 (antibody, V domains shown)
VH: QLQLVESGGGLVQPGGSLRLSCAASGFTFGTYSMRWVRQVPRKALEWVSSIHTDGGGTAYRDSVKGRFTISRDNAKNTLYLQMNNLKPEDTAIYYCVIHGYSDWGQGTQVTVSS
VL: ATMLTQSPGSLSVVPGESASISCKTSQGLVHSDGKTYFYWFLQKPGQSPQQLIYQVSNRASGVPDRFTGSGSGTDFTLKISGVKAEDAGVYYCAQGTYYPHTFGSGTRLEIK
As to B4, the Kd was found to be 20.2 nM with human ApoC3 [5] and 4.96 nM with human ApoC3 [6].

B5: 5E5WT (5E5) IgG1 (antibody, V domains shown)
VH: QLQLVESGGGLVQPGGSLRLSCAASGFTFGTYSMRWVRQVPRKALEWVSSISTDGGGTAYRDSVKGRFTISRDNAKNTLYLQMNNLKPEDTAIYYCVIAGYSDWGQGTQVTVSS
VL: ATMLTQSPGSLSVVPGESASISCKTSQGLVHSDGKTYFYWFLQKPGQSPQQLIYQVSNRASGVPDRFTGSGSGTDFTLKISGVKAEDAGVYYCAQGTYYPHTFGSGTRLEIK
Consider B5, for which the equilibrium dissociation constant (Kd) in the assay with human ApoC3 [1] was found to be 0.0499 nM; with human ApoC3 [5], 0.0499 nM; with human ApoC3 [2], 0.0512 nM; with human ApoC3 [6], 0.0512 nM.

B6: 5E5VH5_VL8 IgG1 (antibody, V domains shown)
VH: QLQLVESGGGLVQPGGSLRLSCAASGFTFGTYSMRWVRQVPRKALEWVSSIHTDGGGTAYRDSVKGRFTISRDNAKNTLYLQMNNLKPEDTAIYYCVIAGYSDWGQGTQVTVSS
VL: ATMLTQSPGSLSVVPGESASISCKTSQGLVHSDGKTYFYWFLQKPGQSPQQLIYQVSNRASGVPDRFTGSGSGTDFTLKISGVKAEDAGVYYCAHGTYYPHTFGSGTRLEIK
For B6, the Kd with human ApoC3 [1] is 11.4 nM; with human ApoC3 [5], 11.4 nM; with human ApoC3 [2] it was 0.975 nM; with human ApoC3 [6] it was 0.975 nM; with human ApoC3 [4], 298 nM.

B7: 5E5VH5VH12_VL8 IgG1 (antibody, V domains shown)
VH: QLQLVESGGGLVQPGGSLRLSCAASGFTFGTYSMRWVRQVPRKALEWVSSIHTDGGGTAYRDSVKGRFTISRDNAKNTLYLQMNNLKPEDTAIYYCVIHGYSDWGQGTQVTVSS
VL: ATMLTQSPGSLSVVPGESASISCKTSQGLVHSDGKTYFYWFLQKPGQSPQQLIYQVSNRASGVPDRFTGSGSGTDFTLKISGVKAEDAGVYYCAHGTYYPHTFGSGTRLEIK
B7: binding in the assay with human ApoC3 [6] was put at a Kd of 22.4 nM. Besides, in the assay with human ApoC3 [7], the binding result was “no binding”.

B8: 5E5VH5_VLWT IgG1 (antibody, V domains shown)
VH: QLQLVESGGGLVQPGGSLRLSCAASGFTFGTYSMRWVRQVPRKALEWVSSIHTDGGGTAYRDSVKGRFTISRDNAKNTLYLQMNNLKPEDTAIYYCVIAGYSDWGQGTQVTVSS
VL: ATMLTQSPGSLSVVPGESASISCKTSQGLVHSDGKTYFYWFLQKPGQSPQQLIYQVSNRASGVPDRFTGSGSGTDFTLKISGVKAEDAGVYYCAQGTYYPHTFGSGTRLEIK
Consider B8, for which the figures for the Kd with human ApoC3 [5] and in the assay with human ApoC3 [6] were 1.31 nM and 0.211 nM, respectively.

B9: 5E5VH12_VLWT IgG1 (antibody, V domains shown)
VH: QLQLVESGGGLVQPGGSLRLSCAASGFTFGTYSMRWVRQVPRKALEWVSSISTDGGGTAYRDSVKGRFTISRDNAKNTLYLQMNNLKPEDTAIYYCVIHGYSDWGQGTQVTVSS
VL: ATMLTQSPGSLSVVPGESASISCKTSQGLVHSDGKTYFYWFLQKPGQSPQQLIYQVSNRASGVPDRFTGSGSGTDFTLKISGVKAEDAGVYYCAQGTYYPHTFGSGTRLEIK
For the molecule B9, the Kd with human ApoC3 [5] worked out at 1.02 nM; in the assay with human ApoC3 [6], 0.0351 nM.

B10: 5E5WT scFv-Fc (antibody, V domains shown)
VH: QLQLVESGGGLVQPGGSLRLSCAASGFTFGTYSMRWVRQVPRKALEWVSSISTDGGGTAYRDSVKGRFTISRDNAKNTLYLQMNNLKPEDTAIYYCVIAGYSDWGQGTQVTVSS
VL: ATMLTQSPGSLSVVPGESASISCKTSQGLVHSDGKTYFYWFLQKPGQSPQQLIYQVSNRASGVPDRFTGSGSGTDFTLKISGVKAEDAGVYYCAQGTYYPHTFGSGTRLEIK
B10: the Kd amounted to 0.06 nM with human ApoC3 [8] and 0.02 nM in the assay with human ApoC3 [9].

B11: 5E5VH12_VLWT scFv-Fc (antibody, V domains shown)
VH: QLQLVESGGGLVQPGGSLRLSCAASGFTFGTYSMRWVRQVPRKALEWVSSISTDGGGTAYRDSVKGRFTISRDNAKNTLYLQMNNLKPEDTAIYYCVIHGYSDWGQGTQVTVSS
VL: ATMLTQSPGSLSVVPGESASISCKTSQGLVHSDGKTYFYWFLQKPGQSPQQLIYQVSNRASGVPDRFTGSGSGTDFTLKISGVKAEDAGVYYCAQGTYYPHTFGSGTRLEIK
With B11, the Kd in the assay with human ApoC3 [8] is 16 nM; in the assay with human ApoC3 [9], 0.51 nM.

B12: 5E5VHWT_VL8 IgG1 (antibody, V domains shown)
VH: QLQLVESGGGLVQPGGSLRLSCAASGFTFGTYSMRWVRQVPRKALEWVSSISTDGGGTAYRDSVKGRFTISRDNAKNTLYLQMNNLKPEDTAIYYCVIAGYSDWGQGTQVTVSS
VL: ATMLTQSPGSLSVVPGESASISCKTSQGLVHSDGKTYFYWFLQKPGQSPQQLIYQVSNRASGVPDRFTGSGSGTDFTLKISGVKAEDAGVYYCAHGTYYPHTFGSGTRLEIK
Consider B12, for which the Kd with human ApoC3 [5] came to 0.0556 nM; with human ApoC3 [6] it was 0.0363 nM.

B13: 5E5VHWT_VL8 scFv-Fc (antibody, V domains shown)
VH: QLQLVESGGGLVQPGGSLRLSCAASGFTFGTYSMRWVRQVPRKALEWVSSISTDGGGTAYRDSVKGRFTISRDNAKNTLYLQMNNLKPEDTAIYYCVIAGYSDWGQGTQVTVSS
VL: ATMLTQSPGSLSVVPGESASISCKTSQGLVHSDGKTYFYWFLQKPGQSPQQLIYQVSNRASGVPDRFTGSGSGTDFTLKISGVKAEDAGVYYCAHGTYYPHTFGSGTRLEIK
Take B13: the Kd with human ApoC3 [8] worked out at 4.29 nM; in the assay with human ApoC3 [9] it was 0.58 nM.

B14: 5E5VH5_VLWT scFv-Fc (antibody, V domains shown)
VH: QLQLVESGGGLVQPGGSLRLSCAASGFTFGTYSMRWVRQVPRKALEWVSSIHTDGGGTAYRDSVKGRFTISRDNAKNTLYLQMNNLKPEDTAIYYCVIAGYSDWGQGTQVTVSS
VL: ATMLTQSPGSLSVVPGESASISCKTSQGLVHSDGKTYFYWFLQKPGQSPQQLIYQVSNRASGVPDRFTGSGSGTDFTLKISGVKAEDAGVYYCAQGTYYPHTFGSGTRLEIK
For the molecule B14, the dissociation constant Kd amounted to 10.9 nM with human ApoC3 [8] and 0.59 nM in the assay with human ApoC3 [9].

B15: 5E5VH12_VL8 IgG1 (antibody, V domains shown)
VH: QLQLVESGGGLVQPGGSLRLSCAASGFTFGTYSMRWVRQVPRKALEWVSSISTDGGGTAYRDSVKGRFTISRDNAKNTLYLQMNNLKPEDTAIYYCVIHGYSDWGQGTQVTVSS
VL: ATMLTQSPGSLSVVPGESASISCKTSQGLVHSDGKTYFYWFLQKPGQSPQQLIYQVSNRASGVPDRFTGSGSGTDFTLKISGVKAEDAGVYYCAHGTYYPHTFGSGTRLEIK
With B15, the Kd with human ApoC3 [5] was 8.79 nM; in the assay with human ApoC3 [6] it was 0.609 nM.
